Reference: paper PMC6959593

Tests used:
[1] = biological target: VEGFR-2 of HUVECs (human (endogenous in HUVECs)) (UniProt P35968)
[2] = biological target: VEGFR-2 of HUVECs (human (endogenous in HUVECs)) (UniProt P35968); test: proximity ligation; Duolink in situ PLA on HUVECs treated with VEGF/CaD for 2 min, fixed in paraformaldehyde and permeabilized; goat anti-VEGF and rabbit anti-VEGFR2 antibodies overnight at 4°C; dots per cell counted with ImageJ
[3] = biological target: VEGFR-2 of HUVECs (human (endogenous in HUVECs)) (UniProt P35968); remark: listed apart in the source

Chain of UniProt P35968 (P35968 20-1356): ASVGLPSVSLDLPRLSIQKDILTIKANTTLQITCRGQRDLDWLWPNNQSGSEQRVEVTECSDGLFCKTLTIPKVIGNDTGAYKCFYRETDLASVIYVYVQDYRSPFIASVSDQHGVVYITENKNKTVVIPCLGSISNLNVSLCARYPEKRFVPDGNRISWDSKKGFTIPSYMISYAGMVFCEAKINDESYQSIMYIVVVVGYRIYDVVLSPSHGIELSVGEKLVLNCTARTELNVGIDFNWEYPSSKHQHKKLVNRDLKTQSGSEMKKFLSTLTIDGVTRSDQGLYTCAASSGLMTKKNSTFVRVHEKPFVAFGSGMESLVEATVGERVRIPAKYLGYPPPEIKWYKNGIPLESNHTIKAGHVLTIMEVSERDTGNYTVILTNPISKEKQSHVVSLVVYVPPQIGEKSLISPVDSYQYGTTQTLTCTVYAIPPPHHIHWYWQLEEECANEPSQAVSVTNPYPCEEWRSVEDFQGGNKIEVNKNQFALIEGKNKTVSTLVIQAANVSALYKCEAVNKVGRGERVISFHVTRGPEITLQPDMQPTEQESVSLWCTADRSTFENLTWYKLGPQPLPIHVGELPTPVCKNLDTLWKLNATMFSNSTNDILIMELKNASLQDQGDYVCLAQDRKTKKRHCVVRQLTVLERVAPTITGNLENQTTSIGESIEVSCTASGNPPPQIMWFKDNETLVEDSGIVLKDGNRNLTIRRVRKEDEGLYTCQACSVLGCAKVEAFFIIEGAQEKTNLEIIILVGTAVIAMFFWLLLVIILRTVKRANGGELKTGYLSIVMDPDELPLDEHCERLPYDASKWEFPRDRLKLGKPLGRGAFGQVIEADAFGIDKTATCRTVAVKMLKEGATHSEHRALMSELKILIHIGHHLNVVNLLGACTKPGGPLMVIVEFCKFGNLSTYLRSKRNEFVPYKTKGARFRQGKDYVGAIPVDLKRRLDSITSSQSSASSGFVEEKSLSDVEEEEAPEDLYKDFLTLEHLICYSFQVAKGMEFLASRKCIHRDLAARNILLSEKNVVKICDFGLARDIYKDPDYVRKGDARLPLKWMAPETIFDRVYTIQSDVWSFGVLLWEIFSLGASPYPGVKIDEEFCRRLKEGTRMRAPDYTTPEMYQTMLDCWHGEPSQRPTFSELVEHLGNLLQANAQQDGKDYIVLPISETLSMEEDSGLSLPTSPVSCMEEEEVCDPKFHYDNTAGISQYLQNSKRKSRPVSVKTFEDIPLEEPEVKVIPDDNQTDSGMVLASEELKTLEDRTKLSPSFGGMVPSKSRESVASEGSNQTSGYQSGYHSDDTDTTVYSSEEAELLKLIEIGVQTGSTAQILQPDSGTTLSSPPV

VEGF165 (25 ng/ml)-induced phosphorylation of VEGFR-2 in heparanase (HPSE, 0.5 μg/ml)-treated HUVECs, with CaD (100 μM), relative to VEGF alone (Western blot) [1]: 50% | decrease of the PLA signal in the presence of CaD [2]: 60% | VEGF165 (25 ng/mL)-induced phosphorylation of VEGFR-2 in HUVECs (Western blot, 2 min), VEGF165 premixed with CaD (6-100 μM) for 60 min [3]: < 50%
Substance: recombinant VEGF165 (ligand)
